In patent US20180155451A1 (published 2018):

T1: FcγRIIa R (human, UniProt P12318 34-217)
T1 construct: extracellular domain; also called FcgRIIa R type; 2aR
T1 sequence (looked up): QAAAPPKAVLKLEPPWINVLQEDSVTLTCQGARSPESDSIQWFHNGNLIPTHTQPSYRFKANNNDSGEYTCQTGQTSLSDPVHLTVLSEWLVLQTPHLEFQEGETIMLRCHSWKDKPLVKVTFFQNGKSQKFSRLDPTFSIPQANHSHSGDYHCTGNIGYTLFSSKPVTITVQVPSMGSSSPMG


These binders were tested against T1, FcγRIIa R (assay: SPR Biacore; vs GpH7-B3/GpL16-k0 =100).
Description: Analysis of interaction between objective antibody and the FcγR was carried out using Biacore T100 (GE Healthcare). HBS-EP+ (GE Healthcare) was used as the running buffer, and the measurement temperature was set to 25° C. Chips produced by immobilizing the antigen peptide by the amine coupling method to a Series S Sencor Chip CM5 (GE Healthcare), or alternatively, chips produced by allowing preliminarily biotinylated antigen peptides to interact with and immobilize onto a Series S Sensor Chip SA (certified) (GE Healthcare) were used. Antibodies of interest were captured onto an antigen peptide-immobilized chip, and allowed to interact to each FcγR diluted with running buffer. To regenerate and repeatedly use the chip, the antibodies captured on the chip were washed off by reacting 10 mM glycine-HCl, pH 1.5.
The FcγR-binding activity of each antibody was assessed primarily using as an indicator the FcγR-binding activity and dissociation constant for FcγR.

| Ho/Con_2aR | Binder |
| --- | --- |
| 14.3 % of control | GpH7-B3 variant G237_19Q/GpL16-k0 (antibody, human IgG1, kappa, also called Ho Ab G237_19Q) heavy: not shown light: DIVMTQSPLSLPVTPGEPASISCQASESLVHSNRNTYLHWYLQKPGQSPQLLIYKVSNRFSGVPDRFSGSGSGTDFTLKISRVEAEDVGVYYCSQNTHVPPTFGQGTKVEIERTVAAPSVFIFPPSDEQLKSGTASVVCLLNNFYPREAKVQWKVDNALQSGNSQESVTEQDSKDSTYSLSSTLTLSKADYEKHKVYACEVTHQGLSSPVTKSFNRGEC |
| 93.4 % of control | GpH7-B3 variant H268_11K/GpL16-k0 (antibody, human IgG1, kappa, also called Ho Ab H268_11K) heavy: not shown light: DIVMTQSPLSLPVTPGEPASISCQASESLVHSNRNTYLHWYLQKPGQSPQLLIYKVSNRFSGVPDRFSGSGSGTDFTLKISRVEAEDVGVYYCSQNTHVPPTFGQGTKVEIERTVAAPSVFIFPPSDEQLKSGTASVVCLLNNFYPREAKVQWKVDNALQSGNSQESVTEQDSKDSTYSLSSTLTLSKADYEKHKVYACEVTHQGLSSPVTKSFNRGEC |
| 122 % of control | GpH7-B3 variant H268_01G/GpL16-k0 (antibody, human IgG1, kappa, also called Ho Ab H268_01G) heavy: not shown light: DIVMTQSPLSLPVTPGEPASISCQASESLVHSNRNTYLHWYLQKPGQSPQLLIYKVSNRFSGVPDRFSGSGSGTDFTLKISRVEAEDVGVYYCSQNTHVPPTFGQGTKVEIERTVAAPSVFIFPPSDEQLKSGTASVVCLLNNFYPREAKVQWKVDNALQSGNSQESVTEQDSKDSTYSLSSTLTLSKADYEKHKVYACEVTHQGLSSPVTKSFNRGEC |
| 107 % of control | GpH7-B3 variant G237_20W/GpL16-k0 (antibody, human IgG1, kappa, also called Ho Ab G237_20W) heavy: not shown light: DIVMTQSPLSLPVTPGEPASISCQASESLVHSNRNTYLHWYLQKPGQSPQLLIYKVSNRFSGVPDRFSGSGSGTDFTLKISRVEAEDVGVYYCSQNTHVPPTFGQGTKVEIERTVAAPSVFIFPPSDEQLKSGTASVVCLLNNFYPREAKVQWKVDNALQSGNSQESVTEQDSKDSTYSLSSTLTLSKADYEKHKVYACEVTHQGLSSPVTKSFNRGEC |
| 105 % of control | GpH7-B3 variant I336_08L/GpL16-k0 (antibody, human IgG1, kappa, also called Ho Ab I336_08L) heavy: not shown light: DIVMTQSPLSLPVTPGEPASISCQASESLVHSNRNTYLHWYLQKPGQSPQLLIYKVSNRFSGVPDRFSGSGSGTDFTLKISRVEAEDVGVYYCSQNTHVPPTFGQGTKVEIERTVAAPSVFIFPPSDEQLKSGTASVVCLLNNFYPREAKVQWKVDNALQSGNSQESVTEQDSKDSTYSLSSTLTLSKADYEKHKVYACEVTHQGLSSPVTKSFNRGEC |
| 105 % of control | GpH7-B3 variant I332_06M/GpL16-k0 (antibody, human IgG1, kappa, also called Ho Ab I332_06M) heavy: not shown light: DIVMTQSPLSLPVTPGEPASISCQASESLVHSNRNTYLHWYLQKPGQSPQLLIYKVSNRFSGVPDRFSGSGSGTDFTLKISRVEAEDVGVYYCSQNTHVPPTFGQGTKVEIERTVAAPSVFIFPPSDEQLKSGTASVVCLLNNFYPREAKVQWKVDNALQSGNSQESVTEQDSKDSTYSLSSTLTLSKADYEKHKVYACEVTHQGLSSPVTKSFNRGEC |
| 98.5 % of control | GpH7-B3 variant H268_12R/GpL16-k0 (antibody, human IgG1, kappa, also called Ho Ab H268_12R) heavy: not shown light: DIVMTQSPLSLPVTPGEPASISCQASESLVHSNRNTYLHWYLQKPGQSPQLLIYKVSNRFSGVPDRFSGSGSGTDFTLKISRVEAEDVGVYYCSQNTHVPPTFGQGTKVEIERTVAAPSVFIFPPSDEQLKSGTASVVCLLNNFYPREAKVQWKVDNALQSGNSQESVTEQDSKDSTYSLSSTLTLSKADYEKHKVYACEVTHQGLSSPVTKSFNRGEC |
| 94.5 % of control | GpH7-B3 variant I336_18N/GpL16-k0 (antibody, human IgG1, kappa, also called Ho Ab I336_18N) heavy: not shown light: DIVMTQSPLSLPVTPGEPASISCQASESLVHSNRNTYLHWYLQKPGQSPQLLIYKVSNRFSGVPDRFSGSGSGTDFTLKISRVEAEDVGVYYCSQNTHVPPTFGQGTKVEIERTVAAPSVFIFPPSDEQLKSGTASVVCLLNNFYPREAKVQWKVDNALQSGNSQESVTEQDSKDSTYSLSSTLTLSKADYEKHKVYACEVTHQGLSSPVTKSFNRGEC |
| 110 % of control | GpH7-B3 variant H268_20W/GpL16-k0 (antibody, human IgG1, kappa, also called Ho Ab H268_20W) heavy: not shown light: DIVMTQSPLSLPVTPGEPASISCQASESLVHSNRNTYLHWYLQKPGQSPQLLIYKVSNRFSGVPDRFSGSGSGTDFTLKISRVEAEDVGVYYCSQNTHVPPTFGQGTKVEIERTVAAPSVFIFPPSDEQLKSGTASVVCLLNNFYPREAKVQWKVDNALQSGNSQESVTEQDSKDSTYSLSSTLTLSKADYEKHKVYACEVTHQGLSSPVTKSFNRGEC |
| 96.4 % of control | GpH7-B3 variant I336_06M/GpL16-k0 (antibody, human IgG1, kappa, also called Ho Ab I336_06M) heavy: not shown light: DIVMTQSPLSLPVTPGEPASISCQASESLVHSNRNTYLHWYLQKPGQSPQLLIYKVSNRFSGVPDRFSGSGSGTDFTLKISRVEAEDVGVYYCSQNTHVPPTFGQGTKVEIERTVAAPSVFIFPPSDEQLKSGTASVVCLLNNFYPREAKVQWKVDNALQSGNSQESVTEQDSKDSTYSLSSTLTLSKADYEKHKVYACEVTHQGLSSPVTKSFNRGEC |
| 113 % of control | GpH7-B3 variant K326_18N/GpL16-k0 (antibody, human IgG1, kappa, also called Ho Ab K326_18N) heavy: not shown light: DIVMTQSPLSLPVTPGEPASISCQASESLVHSNRNTYLHWYLQKPGQSPQLLIYKVSNRFSGVPDRFSGSGSGTDFTLKISRVEAEDVGVYYCSQNTHVPPTFGQGTKVEIERTVAAPSVFIFPPSDEQLKSGTASVVCLLNNFYPREAKVQWKVDNALQSGNSQESVTEQDSKDSTYSLSSTLTLSKADYEKHKVYACEVTHQGLSSPVTKSFNRGEC |
| 131 % of control | GpH7-B3 variant K326_08L/GpL16-k0 (antibody, human IgG1, kappa, also called Ho Ab K326_08L) heavy: not shown light: DIVMTQSPLSLPVTPGEPASISCQASESLVHSNRNTYLHWYLQKPGQSPQLLIYKVSNRFSGVPDRFSGSGSGTDFTLKISRVEAEDVGVYYCSQNTHVPPTFGQGTKVEIERTVAAPSVFIFPPSDEQLKSGTASVVCLLNNFYPREAKVQWKVDNALQSGNSQESVTEQDSKDSTYSLSSTLTLSKADYEKHKVYACEVTHQGLSSPVTKSFNRGEC |
| 105 % of control | GpH7-B3 variant H268_03V/GpL16-k0 (antibody, human IgG1, kappa, also called Ho Ab H268_03V) heavy: not shown light: DIVMTQSPLSLPVTPGEPASISCQASESLVHSNRNTYLHWYLQKPGQSPQLLIYKVSNRFSGVPDRFSGSGSGTDFTLKISRVEAEDVGVYYCSQNTHVPPTFGQGTKVEIERTVAAPSVFIFPPSDEQLKSGTASVVCLLNNFYPREAKVQWKVDNALQSGNSQESVTEQDSKDSTYSLSSTLTLSKADYEKHKVYACEVTHQGLSSPVTKSFNRGEC |
| 133 % of control | GpH7-B3 variant K326_04F/GpL16-k0 (antibody, human IgG1, kappa, also called Ho Ab K326_04F) heavy: not shown light: DIVMTQSPLSLPVTPGEPASISCQASESLVHSNRNTYLHWYLQKPGQSPQLLIYKVSNRFSGVPDRFSGSGSGTDFTLKISRVEAEDVGVYYCSQNTHVPPTFGQGTKVEIERTVAAPSVFIFPPSDEQLKSGTASVVCLLNNFYPREAKVQWKVDNALQSGNSQESVTEQDSKDSTYSLSSTLTLSKADYEKHKVYACEVTHQGLSSPVTKSFNRGEC |
| 133 % of control | GpH7-B3 variant K326_07I/GpL16-k0 (antibody, human IgG1, kappa, also called Ho Ab K326_07I) heavy: not shown light: DIVMTQSPLSLPVTPGEPASISCQASESLVHSNRNTYLHWYLQKPGQSPQLLIYKVSNRFSGVPDRFSGSGSGTDFTLKISRVEAEDVGVYYCSQNTHVPPTFGQGTKVEIERTVAAPSVFIFPPSDEQLKSGTASVVCLLNNFYPREAKVQWKVDNALQSGNSQESVTEQDSKDSTYSLSSTLTLSKADYEKHKVYACEVTHQGLSSPVTKSFNRGEC |
| 95.9 % of control | GpH7-B3 variant H268_05P/GpL16-k0 (antibody, human IgG1, kappa, also called Ho Ab H268_05P) heavy: not shown light: DIVMTQSPLSLPVTPGEPASISCQASESLVHSNRNTYLHWYLQKPGQSPQLLIYKVSNRFSGVPDRFSGSGSGTDFTLKISRVEAEDVGVYYCSQNTHVPPTFGQGTKVEIERTVAAPSVFIFPPSDEQLKSGTASVVCLLNNFYPREAKVQWKVDNALQSGNSQESVTEQDSKDSTYSLSSTLTLSKADYEKHKVYACEVTHQGLSSPVTKSFNRGEC |
| 134 % of control | GpH7-B3 variant K326_15Y/GpL16-k0 (antibody, human IgG1, kappa, also called Ho Ab K326_15Y) heavy: not shown light: DIVMTQSPLSLPVTPGEPASISCQASESLVHSNRNTYLHWYLQKPGQSPQLLIYKVSNRFSGVPDRFSGSGSGTDFTLKISRVEAEDVGVYYCSQNTHVPPTFGQGTKVEIERTVAAPSVFIFPPSDEQLKSGTASVVCLLNNFYPREAKVQWKVDNALQSGNSQESVTEQDSKDSTYSLSSTLTLSKADYEKHKVYACEVTHQGLSSPVTKSFNRGEC |
| 99.6 % of control | GpH7-B3 variant I332_14T/GpL16-k0 (antibody, human IgG1, kappa, also called Ho Ab I332_14T) heavy: not shown light: DIVMTQSPLSLPVTPGEPASISCQASESLVHSNRNTYLHWYLQKPGQSPQLLIYKVSNRFSGVPDRFSGSGSGTDFTLKISRVEAEDVGVYYCSQNTHVPPTFGQGTKVEIERTVAAPSVFIFPPSDEQLKSGTASVVCLLNNFYPREAKVQWKVDNALQSGNSQESVTEQDSKDSTYSLSSTLTLSKADYEKHKVYACEVTHQGLSSPVTKSFNRGEC |
| 106 % of control | GpH7-B3 variant H268_15Y/GpL16-k0 (antibody, human IgG1, kappa, also called Ho Ab H268_15Y) heavy: not shown light: DIVMTQSPLSLPVTPGEPASISCQASESLVHSNRNTYLHWYLQKPGQSPQLLIYKVSNRFSGVPDRFSGSGSGTDFTLKISRVEAEDVGVYYCSQNTHVPPTFGQGTKVEIERTVAAPSVFIFPPSDEQLKSGTASVVCLLNNFYPREAKVQWKVDNALQSGNSQESVTEQDSKDSTYSLSSTLTLSKADYEKHKVYACEVTHQGLSSPVTKSFNRGEC |
| 139 % of control | GpH7-B3 variant K326_03V/GpL16-k0 (antibody, human IgG1, kappa, also called Ho Ab K326_03V) heavy: not shown light: DIVMTQSPLSLPVTPGEPASISCQASESLVHSNRNTYLHWYLQKPGQSPQLLIYKVSNRFSGVPDRFSGSGSGTDFTLKISRVEAEDVGVYYCSQNTHVPPTFGQGTKVEIERTVAAPSVFIFPPSDEQLKSGTASVVCLLNNFYPREAKVQWKVDNALQSGNSQESVTEQDSKDSTYSLSSTLTLSKADYEKHKVYACEVTHQGLSSPVTKSFNRGEC |
| 95.7 % of control | GpH7-B3 variant K326_12R/GpL16-k0 (antibody, human IgG1, kappa, also called Ho Ab K326_12R) heavy: not shown light: DIVMTQSPLSLPVTPGEPASISCQASESLVHSNRNTYLHWYLQKPGQSPQLLIYKVSNRFSGVPDRFSGSGSGTDFTLKISRVEAEDVGVYYCSQNTHVPPTFGQGTKVEIERTVAAPSVFIFPPSDEQLKSGTASVVCLLNNFYPREAKVQWKVDNALQSGNSQESVTEQDSKDSTYSLSSTLTLSKADYEKHKVYACEVTHQGLSSPVTKSFNRGEC |
